In patent US20040176301A1 (CYCLACEL, published 2004):
Read-outs that look alike come from different tables or passages of the source. One block for each binder: values may come before it. Square brackets hold non-standard residues; d marks the D form. Ends that are not written are not given here. Phe(4-F) = N[C@@H](Cc1ccc(F)cc1)C(=O)O; Cit = NC(=O)NCCC[C@H](N)C(=O)O; hSer = N[C@@H](CCO)C(=O)O

Key:
CDK2/cyclin A complex = CDK2/cyclin A complex (UniProt P24941 1-298; P20248 1-432); assay: cell-based or functional assay
CDK2/cyclin A [1] = target: T1, CDK2/cyclin A (UniProt P24941 1-298; P20248 1-432); assay: cell-based or functional assay
CDK1/Cyclin B complex = CDK1/Cyclin B complex (UniProt P06493 1-297; P14635 1-433); assay: cell-based or functional assay
CDK2/Cyclin E complex [2] = target: T2, CDK2/Cyclin E complex (UniProt P24941 1-298; P24864 1-410); assay: cell-based or functional assay
CDK4/Cyclin D1 complex [3] = target: T3, CDK4/Cyclin D1 complex (UniProt P11802 1-303; P24385 1-295); assay: cell-based or functional assay
CDK2/cyclin A [4] = target: T1, CDK2/cyclin A; assay: cell-based or functional assay; remark: listed apart in the source
[5] = target: recombinant CDK2/cyclin A (UniProt P20248 1-432; P24941 1-298); assay: cell-based or functional assay
CDK2/cyclin A [6] = target: T1, CDK2/cyclin A; assay: cell-based or functional assay; remark: listed apart in the source
CDK2/cyclin A [7] = target: T1, CDK2/cyclin A; assay: cell-based or functional assay; remark: listed apart in the source
CDK2/Cyclin E complex [8] = target: T2, CDK2/Cyclin E complex; assay: cell-based or functional assay; remark: listed apart in the source
CDK4/Cyclin D1 complex [9] = target: T3, CDK4/Cyclin D1 complex; assay: cell-based or functional assay; remark: listed apart in the source
Cyclin D1 = Cyclin D1 (UniProt P24385 1-295, limits assumed); assay: competitive ELISA: cyclin D1 binding to immobilised biotinyl-Ahx-p21(149-159)
Chain of Cyclin D1 (P24385 whole entry): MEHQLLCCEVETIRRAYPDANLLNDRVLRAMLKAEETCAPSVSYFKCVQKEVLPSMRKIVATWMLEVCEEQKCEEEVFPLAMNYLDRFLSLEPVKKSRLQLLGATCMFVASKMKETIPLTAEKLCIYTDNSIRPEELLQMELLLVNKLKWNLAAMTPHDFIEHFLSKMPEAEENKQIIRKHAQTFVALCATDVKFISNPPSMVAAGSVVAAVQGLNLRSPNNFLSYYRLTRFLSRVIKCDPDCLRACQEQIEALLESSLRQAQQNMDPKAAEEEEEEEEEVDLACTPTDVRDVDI
From the text: The amount of bound Cyclin D1/Cyclin A was immunodetected and quantified by Turbo-ELISA reagent (PIERCE).

Chain of CDK1/Cyclin B complex (P06493 other isoform, or with tags, fused parts or gaps, chain 1 of 2): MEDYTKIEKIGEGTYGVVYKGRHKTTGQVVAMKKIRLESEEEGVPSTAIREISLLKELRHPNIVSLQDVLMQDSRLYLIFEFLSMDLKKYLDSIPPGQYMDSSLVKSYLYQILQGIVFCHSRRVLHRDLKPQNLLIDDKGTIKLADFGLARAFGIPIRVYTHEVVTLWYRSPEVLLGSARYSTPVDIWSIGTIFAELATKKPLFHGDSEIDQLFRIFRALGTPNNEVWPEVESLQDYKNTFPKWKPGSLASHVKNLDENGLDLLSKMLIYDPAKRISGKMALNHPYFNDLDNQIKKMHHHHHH
Chain of CDK1/Cyclin B complex (P14635 other isoform, or with tags, fused parts or gaps, chain 2 of 2): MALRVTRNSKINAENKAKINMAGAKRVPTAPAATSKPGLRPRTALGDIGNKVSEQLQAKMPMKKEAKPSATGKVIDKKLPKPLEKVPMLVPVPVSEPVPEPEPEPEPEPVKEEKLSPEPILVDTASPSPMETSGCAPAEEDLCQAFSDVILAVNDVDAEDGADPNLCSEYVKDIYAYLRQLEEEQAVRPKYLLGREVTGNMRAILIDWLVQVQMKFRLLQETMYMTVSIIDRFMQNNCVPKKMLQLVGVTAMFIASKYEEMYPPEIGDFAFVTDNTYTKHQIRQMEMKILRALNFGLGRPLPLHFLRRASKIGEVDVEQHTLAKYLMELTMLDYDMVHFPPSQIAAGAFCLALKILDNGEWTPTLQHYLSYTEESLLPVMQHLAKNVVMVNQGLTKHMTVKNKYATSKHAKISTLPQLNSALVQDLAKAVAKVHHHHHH
T3 sequence (P11802 other isoform, or with tags, fused parts or gaps, chain 1 of 2): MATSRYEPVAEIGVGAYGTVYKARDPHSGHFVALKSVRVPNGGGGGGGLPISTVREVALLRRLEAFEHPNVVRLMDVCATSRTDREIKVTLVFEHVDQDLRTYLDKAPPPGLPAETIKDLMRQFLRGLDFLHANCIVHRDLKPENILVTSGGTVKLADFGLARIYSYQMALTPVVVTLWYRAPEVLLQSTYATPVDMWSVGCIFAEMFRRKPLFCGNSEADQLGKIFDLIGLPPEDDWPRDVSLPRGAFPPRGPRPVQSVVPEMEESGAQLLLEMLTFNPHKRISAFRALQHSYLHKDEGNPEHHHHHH
T3 sequence (P24385 whole entry, chain 2 of 2): as the sequence (P24385 whole entry) above

- Relative activity, CDK2/cyclin A kinase inhibition (pRb substrate) (CDK2/cyclin A complex): 2 relative to HAKRRLIF-NH2
Binder: XAKRRLIF (Hse (homoserine) at position 1; C-terminal amide) [H-Hse-Ala-Lys-Arg-Arg-Leu-Ile Phe-NH2]

- Relative activity, Kinase Inhibition (CDK2/cyclin A kinase assay, pRb substrate, [ATP] = 100 µM) (CDK2/cyclin A [1]): < 0.1 relative to H-His-Ala-Lys-Arg-Arg-Leu-Ile-Phe-NH2 (=1)
Binder: H-HAKRALIF-NH2 [H-His-Ala-Lys-Arg-Ala-Leu-Ile-Phe-NH2]

- IC50, CDK1-Cyclin B phosphorylation of GST-Rb (CDK1/Cyclin B complex): > 200 µM
- % Inhibition, cyclin E/CDK2 kinase (CDK2/Cyclin E complex [2]): 75%
- IC50, cyclin E/CDK2 kinase, GST-pRb (CDK2/Cyclin E complex [2]): 2 µM
- % Inhibition, cyclin D1/CDK4 kinase (CDK4/Cyclin D1 complex [3]): 70%
- IC50, cyclin D1/CDK4 kinase, GST-pRb (CDK4/Cyclin D1 complex [3]): 13 µM
Binder: DFYHSKRRLIF-NH2 [p21 (149-159) DFYHSKRRLIF-NH2]

- Relative activity, Kinase Inhibition (CDK2/cyclin A kinase assay, pRb substrate, [ATP] = 100 µM) (CDK2/cyclin A [4]): 0.1 relative to H-His-Ala-Lys-Arg-Arg-Leu-Ile-Phe-NH2 (=1)
Binder: H-HALRRLIF-NH2 [H-His-Ala-Leu-Arg-Arg-Leu-Ile-Phe-NH2]

- Relative activity, CDK2/cyclin A kinase inhibition (pRb substrate) (CDK2/cyclin A complex): < 0.1 relative to HAKRRLIF-NH2
Binder: XAKRRLIF (Pya (3-pyridylalanine) at position 1; C-terminal amide) [H-Pya-Ala-Lys-Arg-Arg-Leu-Ile Phe-NH2]

- Kinase IC50 (µM) CyclinA/CDK2 [5]: 37.2 µM
Binder: Ac-RRLNF-NH2 [Ac-Arg-Arg-Leu-Asn-Phe-NH2]

- IC50, CDK1-Cyclin B phosphorylation of GST-Rb (CDK1/Cyclin B complex): > 200 µM
- IC50, CDK1-Cyclin B phosphorylation of Histone 1 (CDK1/Cyclin B complex): 200 µM
Binder: DFYHAKRRLIFS-NH2 [p21 (149-160)S153A DFYHAKRRLIFS-NH2]

- Relative activity, Kinase Inhibition (CDK2/cyclin A kinase assay, pRb substrate, [ATP] = 100 µM) (CDK2/cyclin A [1]): 0.7 relative to H-His-Ala-Lys-Arg-Arg-Leu-Ile-Phe-NH2 (=1)
Binder: H-HAKRSLIF-NH2 [H-His-Ala-Lys-Arg-Ser-Leu-Ile-Phe-NH2]

- Relative activity, Kinase Inhibition (CDK2/cyclin A kinase assay, pRb substrate, [ATP] = 100 µM) (CDK2/cyclin A [6]): < 0.1 relative to H-His-Ala-Lys-Arg-Arg-Leu-Ile-Phe-NH2 (=1)
B1: H-His-Ala-Lys-Hse-Arg-Leu-Ile-Phe-NH2 (peptide)
peptide: H-HAK[hSer]RLIF-NH2
SMILES: CC[C@H](C)[C@H](NC(=O)[C@H](CC(C)C)NC(=O)[C@H](CCCNC(=N)N)NC(=O)[C@H](CCO)NC(=O)[C@H](CCCCN)NC(=O)[C@H](C)NC(=O)[C@@H](N)Cc1c[nH]cn1)C(=O)N[C@@H](Cc1ccccc1)C(N)=O

- Relative activity, Kinase Inhibition (CDK2/cyclin A kinase assay, pRb substrate, [ATP] = 100 µM) (CDK2/cyclin A [7]): 10 relative to H-His-Ala-Lys-Arg-Arg-Leu-Ile-Phe-NH2 (=1)
B2: H-Ala-Ala-Lys-Arg-Cit-Leu-Ile-pFPhe-NH2 (peptide)
peptide: H-AAKR[Cit]LI[Phe(4-F)]-NH2
SMILES: CC[C@H](C)[C@H](NC(=O)[C@H](CC(C)C)NC(=O)[C@H](CCCNC(N)=O)NC(=O)[C@H](CCCNC(=N)N)NC(=O)[C@H](CCCCN)NC(=O)[C@H](C)NC(=O)[C@H](C)N)C(=O)N[C@@H](Cc1ccc(F)cc1)C(N)=O

- Relative activity, Kinase Inhibition (CDK2/cyclin A kinase assay, pRb substrate, [ATP] = 100 µM) (CDK2/cyclin A [6]): < 0.1 relative to H-His-Ala-Lys-Arg-Arg-Leu-Ile-Phe-NH2 (=1)
Binder: H-HAKARLIF-NH2 [H-His-Ala-Lys-Ala-Arg-Leu-Ile-Phe-NH2]

- Relative activity, Kinase Inhibition (CDK2/cyclin A kinase assay, pRb substrate, [ATP] = 100 µM) (CDK2/cyclin A [6]): < 0.1 relative to H-His-Ala-Lys-Arg-Arg-Leu-Ile-Phe-NH2 (=1)
Binder: H-HAKQRLIF-NH2 [H-His-Ala-Lys-Gln-Arg-Leu-Ile-Phe-NH2]

- % Inhibition, cyclin E/CDK2 kinase (CDK2/Cyclin E complex [8]): 74%
- IC50, cyclin E/CDK2 kinase (CDK2/Cyclin E complex [8]): 2.1 µM
- % Inhibition, cyclin D1/CDK4 kinase (CDK4/Cyclin D1 complex [9]): 58%
- IC50, cyclin D1/CDK4 kinase (CDK4/Cyclin D1 complex [9]): 99 µM
- IC50 (Cyclin D1): > 100 µM
Binder: PVKRRLDL-NH2 (Derived from E2F1) [E2F1 peptide PVKRRLDL-NH2]

- Relative activity, CDK2/cyclin A kinase inhibition (pRb substrate) (CDK2/cyclin A complex): 3 relative to HAKRRLIF-NH2
Binder: H-FAKRRLIF-NH2 [H-Phe-Ala-Lys-Arg-Arg-Leu-Ile Phe-NH2]

- Relative activity, CDK2/cyclin A kinase inhibition (pRb substrate) (CDK2/cyclin A complex): 5 relative to HAKRRLIF-NH2
Binder: XAKRRLIF (Dab (diaminobutyric acid) at position 1; C-terminal amide) [H-Dab-Ala-Lys-Arg-Arg-Leu-Ile Phe-NH2]

- Relative activity, Kinase Inhibition (CDK2/cyclin A kinase assay, pRb substrate, [ATP] = 100 µM) (CDK2/cyclin A [1]): < 0.1 relative to H-His-Ala-Lys-Arg-Arg-Leu-Ile-Phe-NH2 (=1)
Binder: H-HAKRPLIF-NH2 [H-His-Ala-Lys-Arg-Pro-Leu-Ile-Phe-NH2]
